In patent US20230365705A1 (DYNAMICURE BIOTECHNOLOGY, published 2023):

T1: Human CD93 recombinant protein (Sino Biological Inc, Catalog #12589-H08H) (human, UniProt Q9NPY3 22-580)
T1 construct: Biotinylated (EZ-LINK NHS-PEG4 biotin) in the BLI assays; also called hCD93; His-tagged human CD93
T1 sequence (looked up): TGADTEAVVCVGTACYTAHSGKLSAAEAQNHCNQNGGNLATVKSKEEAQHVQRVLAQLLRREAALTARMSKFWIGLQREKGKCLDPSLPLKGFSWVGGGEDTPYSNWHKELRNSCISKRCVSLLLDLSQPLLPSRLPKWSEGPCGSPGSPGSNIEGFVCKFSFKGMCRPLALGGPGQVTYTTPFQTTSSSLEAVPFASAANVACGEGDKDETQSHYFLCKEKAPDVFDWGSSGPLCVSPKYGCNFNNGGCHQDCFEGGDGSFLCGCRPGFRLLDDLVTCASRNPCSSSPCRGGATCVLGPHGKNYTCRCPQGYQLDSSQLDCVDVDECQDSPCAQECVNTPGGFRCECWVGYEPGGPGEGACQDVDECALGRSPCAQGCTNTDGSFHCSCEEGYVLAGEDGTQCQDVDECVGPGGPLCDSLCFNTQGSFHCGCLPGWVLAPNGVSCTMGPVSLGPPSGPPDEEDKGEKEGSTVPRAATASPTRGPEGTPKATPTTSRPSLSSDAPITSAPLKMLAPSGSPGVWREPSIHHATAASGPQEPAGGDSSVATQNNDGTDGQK

T2: Human CD93 on cells (human CD93 expressing CHO cells; HUVEC, U937 and KG1a cells) (human, UniProt Q9NPY3 22-652)
T2 construct: whole, on cells; also called hCD93 expressing CHO cells; hCD93 CHO cells
T2 sequence (looked up): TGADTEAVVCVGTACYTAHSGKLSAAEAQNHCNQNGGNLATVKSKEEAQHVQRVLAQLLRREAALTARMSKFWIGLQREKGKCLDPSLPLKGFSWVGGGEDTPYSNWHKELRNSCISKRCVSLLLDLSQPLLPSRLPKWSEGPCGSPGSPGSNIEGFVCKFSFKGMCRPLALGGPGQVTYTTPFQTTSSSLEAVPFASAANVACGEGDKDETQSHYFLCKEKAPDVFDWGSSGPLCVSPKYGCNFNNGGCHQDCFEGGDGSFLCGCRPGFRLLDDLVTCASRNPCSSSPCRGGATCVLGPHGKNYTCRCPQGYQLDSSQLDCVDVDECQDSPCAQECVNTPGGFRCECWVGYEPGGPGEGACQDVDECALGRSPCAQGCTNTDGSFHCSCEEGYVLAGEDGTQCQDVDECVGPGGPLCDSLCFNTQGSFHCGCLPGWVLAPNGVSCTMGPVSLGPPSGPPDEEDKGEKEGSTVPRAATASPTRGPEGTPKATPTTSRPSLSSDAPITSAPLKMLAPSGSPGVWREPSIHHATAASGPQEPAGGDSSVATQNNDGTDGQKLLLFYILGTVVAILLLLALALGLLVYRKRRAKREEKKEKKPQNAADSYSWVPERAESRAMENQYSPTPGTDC


Assays:
[1] = molecular target: T1, Human CD93 recombinant protein (Sino …); assay: BLI (Octet QKe), biotinylated CD93 on streptavidin biosensors; table under the hCD93 panels
Description: The binding affinity of anti-CD93 antibodies were determined with bio-layer interferometry using Octet QKe (Fortebio). Human CD93 recombinant protein (Sino Biological Inc, Catalog #12589-H08H) or cynomolgus CD93 protein (made in-house) were biotinylated using EZ-LINK NHS-PEG4 biotin (Thermo Fisher Scientific). Streptavidin biosensors (Fortebio) were used to load biotinylated CD93 protein (300 seconds at 5 μg/ml). The baseline was stabilized for 60 seconds in a 1× kinetics buffer (Fortebio) before serially diluted anti-CD93 antibodies were allowed to associate for 300 seconds with captured protein. The sensors were dissociated in a 1× kinetics buffer for 600 seconds.

[2] = molecular target: T1, Human CD93 recombinant protein (Sino …); assay: BLI (Octet QKe), biotinylated human CD93 on streptavidin biosensors; antibody stored 2 weeks at 40 C
Description: (§1) The binding affinity of anti-CD93 antibodies was determined with bio-layer interferometry using Octet QKe (Fortebio). […] Human CD93 recombinant protein (Sino Biological Inc, Catalog #12589-H08H) was biotinylated using EZ-LINK NHS-PEG4 biotin (Thermo Fisher Scientific). Streptavidin biosensors (Fortebio) were used to load biotinylated CD93 protein (300 seconds in 5 μg/ml). Baseline was stabilized for 60 seconds in 1×kinetics buffer (Fortebio) before anti-CD93 antibodies, at a serial dilution, were allowed to associate for 300 seconds with captured protein. Then the sensors were dissociated in 1× kinetics buffer for 600 seconds. […] (FIG. 41).

[3] = molecular target: T2, Human CD93 on cells (human CD93 …); assay: flow cytometry titration, HUVEC cells; antibody stored 4 weeks at 40 C; unit printed as nMM
Description: HUVEC cells were detached by incubation with TrypLE reagents (Thermo Fisher), which preserves the integrity of CD93 on the cell surface. Then the cells were incubated with serial diluted anti-CD93 antibodies for 30 minutes at 4° C. After washing by FACS buffer, the cells were incubated with Alexa Fluor 647 conjugated anti-human IgG (Jackson ImmunoResearch) for 30 minutes in 4° C. After washing by FACS buffer twice, the samples were acquired in NovoCyte Flow Cytometer and analyzed by NovoExpress software.

[4] = molecular target: T1, Human CD93 recombinant protein (Sino …); assay: ELISA, His-tagged human CD93 coated, OD450; antibody stored 4 weeks at 40 C
Description: (§2) His-tagged human CD93 was coated onto a 96 well plate at 1 μg/mL in 1×PBS overnight at 4° C. The plate was washed with ELISA wash buffer (Boston BioProduct, Inc.) and the wells were blocked with ELISA blocking buffer for 1 hour at 37° C. […] The plate was washed with ELISA wash Buffer. HRP-conjugated anti-human Fc antibody was incubated for 1 hour at 37° C. The plate was washed with ELISA wash Buffer. HRP substrate was added for indirect detection of the antibodies binding to CD93.

[5] = molecular target: T1, Human CD93 recombinant protein (Sino …); assay: ELISA, His-tagged human CD93 coated, OD450; antibody stored 2 weeks at 40 C
Description: as §2

[6] = molecular target: T1, Human CD93 recombinant protein (Sino …); assay: BLI (Octet QKe), biotinylated human CD93 on streptavidin biosensors; antibody stored 4 weeks at 40 C
Description: as §1

| Binder | Kd [1] [nM] | koff [1] [s⁻¹] | kon [1] [M⁻¹ s⁻¹] | Kd [2] [nM] | koff [2] [s⁻¹] | kon [2] [M⁻¹ s⁻¹] | EC50 [3] [nM] | EC50 [4] [nM] | EC50 [5] [nM] | Kd [6] [nM] | koff [6] [s⁻¹] | kon [6] [M⁻¹ s⁻¹] |
| --- | --- | --- | --- | --- | --- | --- | --- | --- | --- | --- | --- | --- |
| 16E4 (hybridoma) (antibody, IgG2a, V domains shown, also called 16E4 mAb; 16E4 mIgG2a) VH: QVQLQQPGAELVKPGASVKLSCKASGYTFTSYWMHWVKQRPGQGLEWIGEIDPSASYTYYNQKFKGKATLTVDKSSSTAYMQLSSLTSEDSAVYYCARSVYYGNKYFDVWGAGTTVTVSS VL: not shown | 0.447 | 0.000429 | 960000 |  |  |  |  |  |  |  |  |  |
| h7F3 (humanized 7F3, VH3+VL3) (antibody, human IgG1, V domains shown, also called humanized 7F3-hIgG1) VH: QVQLVQSGAEVKKPGASVKVSCKASGYTFTDYEMHWVRQAPGQGLEWMGGIDPETGDTAYNQNFKGRVTMTTDTSTSTAYMELRSLTSDDTAVYYCTNYGNLYYYAMDYWGQGTSVTVSS VL: EIVLTQSPSSLSASVGDRVTITCRASSSVSSSYLHWYQQKPGKAPKLLIYSTSNLAFGVPSRFSGSGSGTSYTFTISSLQPEDIATYYCQQYSGYPLTFGSGTKLEIK |  |  |  | 0.495 | 0.000356 | 720000 | 1.12 | 0.0407 | 0.0413 | 0.487 | 0.000386 | 793000 |
| h16E4 (humanized 16E4, VH4+VL6) (antibody, V domains shown, Detected with anti-human IgG, so a human Fc) VH: QVQLVQSGAEVKKPGASVKVSCKASGYTFTSYWMHWVRQAPGQGLEWMGEIDPSASYTYYNQKFKGRVTMTRDKSSSTVYMELSSLTSEDSAVYYCARSVYYGNKYFDVWGAGTTVTVSS VL: DIQMTQSPSTLSASVGDRVTITCKASQSVDYAGDSYMNWYQQKPGKAPKLLIYAASNLESGVPSRFSGSGSGTEFTLTISSLQPDDFATYYCQQTNEDPRTFGGGTKLEIK |  |  |  |  |  |  |  | 0.051 | 0.049 |  |  |  |
